Data as given in PMC4943706.

Target: Factor Xa
Assay: SPR; FXa immobilised by amine coupling on a CM5 chip (1455.7 RU); Lofaxin as analyte at 1.95-31.25 nM; Biacore T100, 25°C, HBS-P buffer (10 mM HEPES, 150 mM NaCl, 0.005% P20, pH 7.4); global fit to the 1:1 Langmuir model

Kd: 1.83 nM
Substance: recombinant Lofaxin (Lufaxin-like salivary protein of Bichromomyia olmeca) (natural protein)
